From article PMC11187117, “Structure of the endosomal CORVET tethering complex” (Nature Communications, 2024)

T1: Vps8 with 3xFLAG tag (CORVET subunit) (yeast, UniProt P39702 1-1274)
T1 construct: UniProt P39702 printed for its AlphaFold model
T1 sequence: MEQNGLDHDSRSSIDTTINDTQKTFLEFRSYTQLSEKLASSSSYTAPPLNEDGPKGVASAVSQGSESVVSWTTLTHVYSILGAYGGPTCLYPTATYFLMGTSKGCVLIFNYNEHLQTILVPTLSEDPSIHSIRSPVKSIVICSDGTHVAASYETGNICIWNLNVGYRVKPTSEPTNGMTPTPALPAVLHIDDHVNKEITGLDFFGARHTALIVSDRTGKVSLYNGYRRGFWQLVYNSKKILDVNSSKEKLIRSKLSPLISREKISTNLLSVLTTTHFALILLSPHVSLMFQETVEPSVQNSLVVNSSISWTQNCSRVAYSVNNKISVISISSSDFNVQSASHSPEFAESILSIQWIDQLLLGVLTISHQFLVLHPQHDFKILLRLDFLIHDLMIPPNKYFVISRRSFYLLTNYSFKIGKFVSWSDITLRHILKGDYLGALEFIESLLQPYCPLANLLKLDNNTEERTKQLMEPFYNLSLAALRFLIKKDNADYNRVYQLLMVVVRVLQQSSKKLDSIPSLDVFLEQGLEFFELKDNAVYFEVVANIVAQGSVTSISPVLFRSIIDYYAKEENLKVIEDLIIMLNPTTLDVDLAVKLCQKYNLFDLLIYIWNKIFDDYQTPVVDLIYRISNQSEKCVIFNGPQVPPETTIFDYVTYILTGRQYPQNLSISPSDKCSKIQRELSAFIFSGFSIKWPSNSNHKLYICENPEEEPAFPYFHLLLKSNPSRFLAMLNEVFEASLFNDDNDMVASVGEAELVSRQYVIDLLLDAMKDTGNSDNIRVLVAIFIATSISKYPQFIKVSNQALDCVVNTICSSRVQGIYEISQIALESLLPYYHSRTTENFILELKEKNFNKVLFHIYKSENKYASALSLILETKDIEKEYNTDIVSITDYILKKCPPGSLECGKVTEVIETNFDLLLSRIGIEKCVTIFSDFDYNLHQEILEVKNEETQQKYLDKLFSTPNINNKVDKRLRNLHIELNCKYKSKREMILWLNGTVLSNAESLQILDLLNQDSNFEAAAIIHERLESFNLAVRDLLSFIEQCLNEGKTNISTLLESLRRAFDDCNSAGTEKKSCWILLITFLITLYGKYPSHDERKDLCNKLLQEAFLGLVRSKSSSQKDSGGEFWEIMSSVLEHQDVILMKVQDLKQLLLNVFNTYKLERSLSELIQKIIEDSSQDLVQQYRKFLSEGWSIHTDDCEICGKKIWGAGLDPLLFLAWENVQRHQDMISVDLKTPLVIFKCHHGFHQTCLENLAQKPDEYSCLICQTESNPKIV

T2: Vps18 (CORVET and HOPS core subunit) (yeast, UniProt P27801 1-918)
T2 construct: Vps18, yeast, core subunit shared by CORVET and HOPS
T2 sequence: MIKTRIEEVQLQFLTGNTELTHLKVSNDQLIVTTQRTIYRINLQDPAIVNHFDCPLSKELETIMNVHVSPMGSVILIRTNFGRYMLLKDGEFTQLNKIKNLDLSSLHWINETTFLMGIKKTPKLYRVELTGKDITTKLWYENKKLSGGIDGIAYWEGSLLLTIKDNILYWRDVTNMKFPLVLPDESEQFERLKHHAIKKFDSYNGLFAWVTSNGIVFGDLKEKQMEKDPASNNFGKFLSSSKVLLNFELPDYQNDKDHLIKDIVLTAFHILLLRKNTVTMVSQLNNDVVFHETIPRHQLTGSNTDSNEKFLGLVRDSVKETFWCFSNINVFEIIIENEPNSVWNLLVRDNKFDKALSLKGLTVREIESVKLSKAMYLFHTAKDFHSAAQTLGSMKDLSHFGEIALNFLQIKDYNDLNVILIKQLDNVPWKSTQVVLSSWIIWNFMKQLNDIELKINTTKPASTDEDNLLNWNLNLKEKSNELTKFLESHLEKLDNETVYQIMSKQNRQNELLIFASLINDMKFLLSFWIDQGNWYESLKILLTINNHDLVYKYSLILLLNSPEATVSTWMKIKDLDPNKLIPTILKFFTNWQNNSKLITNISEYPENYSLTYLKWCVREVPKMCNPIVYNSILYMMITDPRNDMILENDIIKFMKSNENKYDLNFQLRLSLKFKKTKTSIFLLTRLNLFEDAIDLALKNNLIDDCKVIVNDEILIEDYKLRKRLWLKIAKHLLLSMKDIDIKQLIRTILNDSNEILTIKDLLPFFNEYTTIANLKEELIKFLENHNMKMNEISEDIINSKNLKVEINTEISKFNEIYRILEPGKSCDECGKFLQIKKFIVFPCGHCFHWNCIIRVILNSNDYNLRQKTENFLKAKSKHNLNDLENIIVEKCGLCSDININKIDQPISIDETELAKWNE

B1: Vps16 (CORVET and HOPS subunit, SNARE-binding module) (natural protein, yeast)
chain: MKNPSFDWERLKDVFYRSRAIGELKWPTQYEEFKCALSLTVIAVEIQDFIQVYNYFGQLLGKINLQRIHEDIIKFEFDKDEKLILVTKSSIKIVKGWSPLTIESVPLQDPTIDTIWDYHNGIMLLAKSRDIYKLNGNEWELLYENKDKKYNLLTKNHWSCNDDSIILLDVDHVYQVSTSNGALLKLITDSSWHKVTISSRGFICLYNMKDNKLQIFRDPARILMEHNLDSTPDDICWCGNDTVACSFEDEIKLYGPDGLYVTFWYPFTVTNLRAEVDGLKVITTEKIYFLSRVQPQTSNIFRIGSTEPGAMLVDSFSLLEDHAPKAIEILKNFVLEKGVLDCIAAAIDEFEPKLQKMLLNAASYGKASLQYKSFDASIFVNACNTIKLLNCFRSFGIFLTVEEYRCISLKGVIDRLLKYHRYYECIQICKLANERFLLGYVFTEWAKDKIKGSPDMEDDELLDKIKSRLSVIDMTDTLQMVAVAKVAYLEGRFQLSRNLALLEKNEEARIEQLYNLDDDSIALKECIKVQNYSLTISLLIALSKKLTNSQLTKLLIIDMFNNPLYLYYMRMDKAYLYDFYRQTDRFIDLAHVLLQQGKEQQSLHSFLPQIKDLYSQVQNSEVVNNTIEQLQRQEKLWIYQESLGKRFAISFTNMTLDQTLSKLIETGQDKQVKEIVKKFKISEKKLYHLKCKTLVEAKKFDELLQFAQSRKSPIGYMPFYTYLKSRGHMDKASPYVNMIPGLSYQEKKKLYVECRGFRDAIQLAGKEKDIPGLKEIYNIIPPNEPELKALANETMSRI
notes: Vps16, yeast, subunit shared by CORVET and HOPS
B2: Vps11 (CORVET and HOPS core subunit) (natural protein, yeast)
chain: MSLSSWRQFQLFENIPIRDPNFGGDSLLYSDPTLCAATIVDPQTLIIAVNSNIIKVVKLNQSQVIHEFQSFPHDFQITFLKVINGEFLVALAESIGKPSLIRVYKLEKLPNREQLYHSQVELKNGNNTYPISVVSISNDLSCIVVGFINGKIILIRGDISRDRGSQQRIIYEDPSKEPITALFLNNDATACFAATTSRILLFNTTGRNRGRPSLVLNSKNGLDLNCGSFNPATNEFICCLSNFIEFFSSSGKKHQFAFDLSLRKRIFCVDKDHILIVTEETGVPTTSISVNELSPTIINRIFIIDAKNKIISLNFVVSSAIIDIFSTSQSGKNITYLLTSEGVMHRITPKSLENQINIIIQKELYPFALQLAKQHSLSPLDVQEIHKKYGDYLFKKGLRKEATDQYIQCLDVVETSEIISKFGVKEVPDPESMRNLADYLWSLIKNSISQRDHVTLLLIVLIKLKDVEGIDTFIQHFDRKGIWNEGVVMDDMDDVTFFYSDNDFFDLDLILELMKESDFKRLSYRLAKKYSKDSLIIVDILLNLLHNPVKAIKYIKSLPIDETLRCLVTYSKKLLEESPNETNALLIEVFTGKFKPSTFEVDLDRRDTTGDFSENIRTVFYSYKTFFNYMNSNGTSDAMSESSEASHEHEEPTYHPPKPSIVFSSFVTKPFEFVVFLEACLACYQQYEGFDEDRQVILTTLYDLYLNLAQNDVPERIDDWRSRATGVLRESNKLVYSAASNNTSKRVDNSIMLLISHMDQSSASAKDKTKIDIASFANDNPEMDLLSTFRAMTLNEEPSTCLKFLEKYGTEEPKLLQVALSYFVSNKLIFKEMGGNEVLKEKVLRPIIEGERMPLLDIIKALSRTNVAHFGLIQDIIIDHVKTEDTEIKRNEKLIESYDKELKEKNKKLKNTINSDQPLHVPLKNQTCFMCRLTLDIPVVFFKCGHIYHQHCLNEEEDTLESERKLFKCPKCLVDLETSNKLFEAQHEVVEKNDLLNFALNSEEGSRDRFKVITEFLGRGAISYSDITI
notes: Vps11, yeast, core subunit shared by CORVET and HOPS
B3: Vps3 (CORVET subunit) (natural protein, yeast)
chain: MVKKKTNNDKGKEVKENEGKLDIDSESSPHERENDKKKTEDDSLRATESEETNTHNANPNETVRADKFSQEESRPIEDSPHTDKNTAQESCQPSSAEDNVINTDITSLNEKTSTNDEQEKGLPLKISEGPFTISTLLDNVPSDLIYTCCEAYENHIFLGTTTGDLLHYFELERGNYMLVSQTKFDAESNSKIDKILLLPKVEGALILCDNELVLFILPEFAPRPNTTRLKGISDVVICNFSRSSKAYRIYAFHAEGVRLLKISADSLVLTKAFNFKLIDKACAHEETLMVSKLNSYELINLKSSQVIPLFRISETDEDLEPIITSFNEQSEFLVCSGGGSYDSGAMALVVNHHGDIIKGTIVLKNYPRNVIVEFPYIIAESAFQSVDIYSALPSEKSQLLQSITTSGSDLKISKSDNVFTNTNNSEEFKEKIFNKLRLEPLTHSDNKFRIERERAFVEESYEEKTSLIVYNNLGIHLLVPTPMVLRFTSCEESEIDNIEDQLKKLAKKDLTKFEHIEAKYLMSLLLFLMTLHYDHIEDEVMKKWCDFSDKVDIRILFYMFGWKVYSEIWCFHGLINIVERLKSLKLTNKCENILKMLLMMKNELKKKNKTGLLTNDFDDIMKTIDITLFKLRLEKKETITVDMFERESYDEIIREINLHDDKLPRIELLIEIYKEKGEYLKALNLLREAGDYISLVSFIEENLKKLPEDYIKERIADDLLLTLKQGDENTEECAIKKVLKILDMACINKNDFLNKIPAEETSLKVSFIEQLGVQNSNDSKFLFNYYLAKLREIINQSNIWSILGDFIKEYKDDFAYDKTDITNFIHIKLKHSLQCENFSKYYEKCENLKSENEKDDEFINFTFDEISKIDKEHILTLLFFPNELTNWVSSEELLKIYLSFNDFRSVEKYIGKQNLVAVMKQYLDISSLNYSVELVTNLLQRNFELLDDTDIQLKILETIPSVFPVQTISELLLKVLIKYQEKKEESNLRKCLLKNQISISDELSRNFDSQG
notes: UniProt P23643 printed for its AlphaFold model; N-terminal half (with the β-propeller) was removed from the deposited model; source: yeast lysate in the Vps8-ALFA pull-downs

Columns and labels:
Assay in all cases: cryo-EM structure; single-particle cryo-EM of the hexameric CORVET co-expressed in yeast and purified by 3xFLAG on Vps8 and SEC; about 0.8 mg/ml; consensus map 4.6 Å, local refinements to 3.8 Å
Details in all cases: both partners purified
[1] = biological target: T1, Vps8 with 3xFLAG tag (CORVET subunit)
[2] = biological target: T2, Vps18 (CORVET and HOPS core subunit)
[3] = biological target: B2

| binding result [1] | binding result [2] | binding result [3] | Binder |
| --- | --- | --- | --- |
| binds | binds |  | B1 |
| binds |  |  | B2 |
|  |  | binds | B3 |
